{"source": "patent US20210292392A1", "about": "(TSB THERAPEUTICS BEIJING, published 2021)", "binders": {"B1": {"name": "P2A-1B3 (antibody, V domains shown)", "VH": "EVQLVESGGGLVQPGGSLRLSCVASGFSFNRYSMNWLRQTPRKGLEWLSYISASGNTIYYADSVRGRFTTSRDNAKNTLYLQMNSLRDDDTAVYFCARPAMVREGTYNWFDPWGQGTLVTVSS", "VL": "EIVLTQSPGTLSLSPGERATLSCRASQSVSNDYLAWYQQKPGQAPRLLIYYASSRATGIPDRFSGSGSGTDFTLTISRLEPGDSAVYYCQQYGDSPPITFGQGTRLEIKR"}, "B2": {"name": "P2A-1A8 (antibody, V domains shown)", "VH": "EVQLVESGGDLVQPGRSLRLSCAASGFAFDDYAMHWVRQAPGKGLEWVSGSTWNSGTIAYADSVKGRFTISRDNAKKSLYLQMNSLRTEDTALYYCAKLGGYSDYDYPRPGDHYYGLDVWGQGTTVTVSS", "VL": "QSALTQPASVSGSPGQSITISCTGTSSDVGSYNLVSWYQQHPGKVPKLLIYDVNKRPSGISNRFSGSKSGNTASLTISGLQAEDEADYYCRSYTDSNTYVFGTGTKVTVLG"}, "B3": {"name": "P2A-1A9 (antibody, V domains shown)", "VH": "EVQLVESGGGLVQPGRSLRLSCAASGFTFDDYAMHWVRQVPGKGLEWVSGISWNGGIIGYADSVKGRFTISRDNAKTSLYLQMNSLRAEDTALYYCAKVAGRGDYDYYYGMDVWGQGTTVTVSS", "VL": "QSVLTQPPSVSGAPGQRVTISCTGSSSNIGAGYDVHWYQQLPGTAPKLLIYGNNNRPSGVPDRFSGSKSGTSASLAITGLQAEDEADYYCQSYDSSLSGSVFGGGTKLTVLG"}, "B4": {"name": "P2B-2G11 (antibody, V domains shown)", "VH": "B3 VH with V40A, R87K, A88P", "VL": "B3 VL"}, "B5": {"name": "P2A-1B3 (antibody, V domains shown)", "VH": "B1 VH", "VL": "B1 VL"}, "B6": {"name": "P2B-2G4 (antibody, V domains shown)", "VH": "QVQLVESGGGVVQPGRSLRLSCAASGFTFSSYGMHWVRQAPGKGLEWVAVIWYDGSNKYYADSVKGRFTISRDNSKNTLYLQMNSLRAEDTAVYYCARGAAMVWLDYWGQGTLVTVSS", "VL": "QSALTQPRSVSGSPGQSVTISCTGTSSDVGGYNYVSWYQQHPGKAPKLMIYDVSKRPSGVPDRFSGSKSGNTASLTISGLQAEDEADYYCCSYAGSYTFVVFGGGTKLTVLG"}, "B7": {"name": "P2B-1A1 (antibody, human IgG1, lambda, V domains shown)", "VH": "QVQLQESGPGLVKPSETLSLTCTVSGGSISSYYWSWIRQPPGKGLEWIGYIYYSGSTNYNPSLKSRVTISVDTSKKQFSLKLSSVTAADTAVYYCARLERDWPLDAFDIWGQGTMVTVSS", "VL": "QSALTQPASVSGSPGQSITISCTGTSSDVGGYNYVSWYQQHPGKAPKFMIYDVSKRPSGVSNRFSGSKSGNTASLTISGLQAEDEADYYCSSYTSNNTFAFGGGTKLTVLG"}, "B8": {"name": "P2B-1A10 (antibody, human IgG1, kappa, V domains shown)", "VH": "EVQLVESGGGLIQPGGSLRLSCAASGFTVSSNYMSWVRQAPGKGLEWVSVIYSGGSTYYADSVKGRFTISRDNSKNTLYLQMNSLRAEDTAVYYCAREGPKSITGTAFDIWGQGTIVTVSS", "VL": "DIQMTQSPSSLSASVGDRVTITCQASQDISNYFNWYQQKPGKAPKLLIYDASNLETGVPSRFSGSGSGTDFTFTISSLQPEDIATYYCQQYDNLPMYTFGQGTKLEIKR"}, "B9": {"name": "P2B-1D9 (antibody, human IgG1, lambda, V domains shown)", "VH": "QITLKESGPTLVKPTQTLTLTCTFSGFSLSTSGVGVGWIRQPPGKALEWLALIYWDDDKYYSPSLKSRLTITKDTSKNQVVLTMTNMDPVDTATYYCAHTRILYYGSGSYYDYWGQGTLVTVSS", "VL": "not shown"}, "B10": {"name": "P2B-1E4 (antibody, human IgG1, lambda, V domains shown)", "VH": "QITLKESGPTLVKPTQTLTLTCTFSGFSLSTSGVGVGWIRQPPGKALEWLALIYWDDDKRYSPSLKSRLTITKDTSKNQVVLTMTNMDPVDTATYYCAHQIVATIIDYWGQGTLVTVSS", "VL": "QSALTQPASVSGSPGQSITISCTGTSSDVGGYNYVSWYQQHPGKAPKLMIYDVSKRPSGVSNRFSGSKSGNTASLTISGLQAEDEADYYCSSYTSSSVVFGGGTKLTVLG"}, "B11": {"name": "P5A-1B8 (antibody, human IgG1, kappa, V domains shown)", "VH": "EVQLVESGGGLIQPGGSLRLSCAASGFTVSSNYMSWVRQAPGKGLEWVSVIYPGGSTFYADSVKGRFTISRDNSKNTLYLQMNSLRAEDTAVYYCARETLAFDYWGQGTLVTVSS", "VL": "DIQLTQSPSFLSASVGDRVTITCRASQGISSYLAWYQQKPGKAPKLLIYAASTLQSGVPSRFSGSGSGTEFTLTISSLQPEDFATYYCQQLNSYPPAFGGGTKVEIKR"}, "B12": {"name": "P5A-2G9 (antibody, human IgG1, lambda, V domains shown)", "VH": "QVQLVESGGGVVQPGRSLRLSCAASGFTFSSYGMHWVRQAPGKGLEWVAVIWYDGSNKYYADSVKGRFTISRDNSKNTLYLQMNSLRAEDTAVYYCARWFHTGGYFDYWGQGTLVTVSS", "VL": "QPVLTQPPSSSASPGESARLTCTLPSDINVSSYNIYWYQQKPGSPPRYLLYYYSDSDKGQGSGVPSRFSGSKDASANTGILLISGLQSEDEADYYCMIWPSNALYVFGTGTKVTVLG"}, "B13": {"name": "P5A-1D2 (antibody, human IgG1, lambda, V domains shown)", "VH": "EVQLVESGGGLIQPGGSLRLSCAASGFIVSSNYMSWVRQAPGKGLEWVSIIYSGGSTYYADSVKGRFTISRDNSNNTLYLQMNSLRAEDTAVYYCARALQVGATSDYFDYWGQGTLVTVSS", "VL": "B3 VL with N54S, A86T, Y93C, G99V, S100V"}, "B14": {"name": "P5A-3C8 (antibody, human IgG1, kappa, V domains shown)", "VH": "EVQLVESGGGLIQPGGSLRLSCAASGFTVSSNYMSWVRQAPGKGLEWVSFIYSGGSTYYADSVKGRFTISRDNSKNTLYLQMNSLRAEDTAVYYCARDLQEHGMDVWGQGTTVTVSS", "VL": "DIQLTQSPSSLSASVGDRVTITCRASQGISSYLAWYQQKPGKAPKLLIYAASTLQSGVPSRFSGSGSGTDFTLTISSLQPEDFATYYCQHLNSYPPGYTFGQGTKLEIKR"}, "B15": {"name": "P2B-1A10 (antibody, human IgG1, kappa, V domains shown)", "VH": "B8 VH", "VL": "B8 VL"}, "B16": {"name": "P5A-3C12 (antibody, human IgG1, kappa, V domains shown)", "VH": "QITLKESGPTLVKPTQTLTLTCTFSGFSLSTSGVGVGWIRQPPGKALEWLALIYWDDDKRYSPSLKSRLTITKDTSKNQVVLTMTNMDPVDTATYYCAHSLFLTVGYSSSWSPFDYWGQGTLVTVSS", "VL": "not shown"}, "B17": {"name": "P22A-1D1 (antibody, human IgG1, kappa, V domains shown)", "VH": "B14 VH with F50V, L99R, Q100D, E101Y, H102Y", "VL": "DIQLTQSPSFLSASVGDRVTITCRASQGISSYLAWYQQKPGKAPKLLIYAASTLQSGVPSRFSGSGSGTEFTLTISSLQPEDFATYYCLHLNSYRTFGLGTKVEIKR"}, "B18": {"name": "P5A-2G7 (antibody, human IgG1, lambda, V domains shown)", "VH": "QVQLQESGPGLVKPSETLSLTCTVSGDSVSSGSYYWSWIRQPPGKGLEWIGYIYYSGSTNYNPSLKSRVTISVDTSKNQFSLKLSSVTAADTAVYYCARERCYYGSGRAPRCVWFDPWGQGTLVTVSS", "VL": "B6 VL with R8A, V18I, K55N, P61S, D62N, C91S, A94T, G95S, Y97S, F99L"}}, "note": "Where a chain is given by its changes, count along the chain named. Names may count otherwise.", "data": [{"target": "full length spike (S) protein of SARS-CoV-2 on pseudovirus (SARS-CoV-2, UniProt P0DTC2 14-1273)", "test": "cell-based or functional assay", "units": {"Pseudovirus IC50": "µg/mL", "Pseudovirus IC80": "µg/mL"}, "values": [{"binder": "B1", "Pseudovirus IC50": 16.8, "Pseudovirus IC80": "> 50"}]}, {"target": "T1, full length spike (S) protein of SARS-CoV-2 (SARS-CoV-2, UniProt P0DTC2 14-1273)", "test": "cell-based or functional assay", "units": {"IC50, pseudovirus neutralization": "µg/mL", "Neutralizing activity (%) Mean at 0.0228624 µg/ml": "%", "Neutralizing activity (%) Mean at 0.0685871 µg/ml": "%", "Neutralizing activity (%) Mean at 0.2057613 µg/ml": "%", "Neutralizing activity (%) Mean at 0.6172839 µg/ml": "%", "Neutralizing activity (%) Mean at 1.851852 µg/ml": "%", "Neutralizing activity (%) Mean at 5.555555 µg/ml": "%", "Neutralizing activity (%) Mean at 16.66667 µg/ml": "%", "Neutralizing activity (%) Mean at 50 µg/ml": "%"}, "values": [{"binder": "B2", "IC50, pseudovirus neutralization": 7.68, "Neutralizing activity (%) Mean at 0.0228624 µg/ml": 4.34, "Neutralizing activity (%) Mean at 0.0685871 µg/ml": 13.2, "Neutralizing activity (%) Mean at 0.2057613 µg/ml": 14.1, "Neutralizing activity (%) Mean at 0.6172839 µg/ml": 16.5, "Neutralizing activity (%) Mean at 1.851852 µg/ml": 26.7, "Neutralizing activity (%) Mean at 5.555555 µg/ml": 44.8, "Neutralizing activity (%) Mean at 16.66667 µg/ml": 67.8, "Neutralizing activity (%) Mean at 50 µg/ml": 88.2}, {"binder": "B3", "IC50, pseudovirus neutralization": 26.3, "Neutralizing activity (%) Mean at 0.0228624 µg/ml": 12.5, "Neutralizing activity (%) Mean at 0.0685871 µg/ml": 15.9, "Neutralizing activity (%) Mean at 0.2057613 µg/ml": 15.1, "Neutralizing activity (%) Mean at 0.6172839 µg/ml": 14.3, "Neutralizing activity (%) Mean at 1.851852 µg/ml": 15.9, "Neutralizing activity (%) Mean at 5.555555 µg/ml": 34.8, "Neutralizing activity (%) Mean at 16.66667 µg/ml": 41.2, "Neutralizing activity (%) Mean at 50 µg/ml": 62.6}, {"binder": "B4", "IC50, pseudovirus neutralization": 34.8, "Neutralizing activity (%) Mean at 0.0228624 µg/ml": 3.81, "Neutralizing activity (%) Mean at 0.0685871 µg/ml": 13.9, "Neutralizing activity (%) Mean at 0.2057613 µg/ml": 12.8, "Neutralizing activity (%) Mean at 1.851852 µg/ml": 16, "Neutralizing activity (%) Mean at 5.555555 µg/ml": 19, "Neutralizing activity (%) Mean at 16.66667 µg/ml": 25.9, "Neutralizing activity (%) Mean at 50 µg/ml": 64.4}, {"binder": "B5", "IC50, pseudovirus neutralization": 16.8, "Neutralizing activity (%) Mean at 0.0228624 µg/ml": 11.5, "Neutralizing activity (%) Mean at 0.0685871 µg/ml": -0.545, "Neutralizing activity (%) Mean at 0.2057613 µg/ml": 10.2, "Neutralizing activity (%) Mean at 0.6172839 µg/ml": 23.3, "Neutralizing activity (%) Mean at 1.851852 µg/ml": 22.1, "Neutralizing activity (%) Mean at 5.555555 µg/ml": 37.2, "Neutralizing activity (%) Mean at 16.66667 µg/ml": 43.6, "Neutralizing activity (%) Mean at 50 µg/ml": 74.9}, {"binder": "B6", "IC50, pseudovirus neutralization": 5.11, "Neutralizing activity (%) Mean at 0.0228624 µg/ml": -3.33, "Neutralizing activity (%) Mean at 0.0685871 µg/ml": -8.88, "Neutralizing activity (%) Mean at 0.2057613 µg/ml": 10.4, "Neutralizing activity (%) Mean at 0.6172839 µg/ml": 20.2, "Neutralizing activity (%) Mean at 1.851852 µg/ml": 35.4, "Neutralizing activity (%) Mean at 5.555555 µg/ml": 46.4, "Neutralizing activity (%) Mean at 16.66667 µg/ml": 65.2, "Neutralizing activity (%) Mean at 50 µg/ml": 74.8}]}, {"target": "T1, full length spike (S) protein of …", "test": "cell-based or functional assay", "remark": "another data set of the same source", "units": {"IC50, pseudovirus neutralization": "µg/mL"}, "values": [{"binder": "B7", "IC50, pseudovirus neutralization": 0.687}, {"binder": "B8", "IC50, pseudovirus neutralization": 0.349}, {"binder": "B9", "IC50, pseudovirus neutralization": 3.12}, {"binder": "B10", "IC50, pseudovirus neutralization": 5.96}]}, {"target": "receptor-binding domain (RBD) of the spike protein of SARS-CoV-2 (SARS-CoV-2, UniProt P0DTC2 319-541)", "test": "not given", "units": {"Kd": "nM"}, "values": [{"binder": "B11", "Kd": 4.28}, {"binder": "B12", "Kd": 15.9}, {"binder": "B13", "Kd": 14}, {"binder": "B14", "Kd": 1.3}, {"binder": "B15", "Kd": 38.4}, {"binder": "B16", "Kd": 8.47}, {"binder": "B17", "Kd": 5.79}, {"binder": "B18", "Kd": 3.95}]}, {"target": "spike protein on live SARS-CoV-2 (SARS-CoV-2, UniProt P0DTC2 14-1273)", "test": "cell-based or functional assay", "units": {"IC50, live SARS-CoV-2 focus reduction neutralization test (FRNT)": "µg/mL"}, "values": [{"binder": "B2", "IC50, live SARS-CoV-2 focus reduction neutralization test (FRNT)": 35.9}]}]}
